Results as given in patent US6946133.

Molecular target: HLA class I-A2 molecule (human) (UniProt P04439)
Experiment: T2 binding assay, peptide 50 µg/ml for 24 h, anti-HLA-A2 mAb, flow cytometry; cut off for positivity 100

PSA [42-51] (from UniProt P07288 66-75) (peptide)
T2 binding, relative fluorescence (mean intensity): 51.4
